According to PMC7962591 (Cell, 2021):

Target: SARS-CoV-2 (strain Wuhan-Hu-1) spike protein, wild type, full-length expression construct (SARS-CoV-2, Wuhan-Hu-1, UniProt P0DTC2)
Assay: flow cytometry on cells

Row | Binder | binding result
1 | COV2-2489 (human mAb, recombinant IgG1) (antibody, V domains shown) VH: QLQLQESGPGLVKPSETLSLTCTVSGGSISSTTYYWGWIRQPPGKGLEWIASIYYSGSTYYNPSLKSRLTVSVDTSKNQFSLKLSSVTAADTAVYYCARQWKWFGEAWYFDLWGRGTLVTVSS VL: not shown | binds
2 | COV2-2676 (human mAb, recombinant IgG1) (antibody, V domains shown) VH: QVQLVQSGAEVKKPGSSVKVSCKASGGTFSSYAINWVRQAPGQGLEWMGGIIPIFGTANYAQKFQGRVTFTADESTSTAYMEVSSLRSEDTAVYYCARSCGDCYSADLDFWGQGTLVTVSS VL: EIVLTQSPATLSLSPGERATLSCRASQSISSFLAWYQQKPGQAPRLLIYDASNRATGIPARFSGSGSGTDFTLTISSLEPEDFAVYYCQRRSNWPPFTFGPGTKVDIK | binds
